Data published in PMC6177252, “Transcription factors Rv0081 and Rv3334 connect the early and the enduring hypoxic response of Mycobacterium tuberculosis”.

B1: FAM-Fragment 1 (dsDNA)
DNA 1: CACATGTACCCAGTGTTAACCTTCTAGTGCACTAGAAGGTCAAGGGGAGTCGC
DNA 2: GCGACTCCCCTTGACCTTCTAGTGCACTAGAAGGTTAACACTGGGTACATGTG
B2: FAM-Fragment 3 (dsDNA)
DNA 1: TGTCGATGGTTGTTCTCATCTGGTAACTCCTTTCCGCAGGCCGCAATTCAGCG
DNA 2: CGCTGAATTGCGGCCTGCGGAAAGGAGTTACCAGATGAGAACAACCATCGACA
B3: Fragment 1 (-53 to 0) (dsDNA)
DNA 1: B1 DNA 1
DNA 2: B1 DNA 2
B4: Fragment 4 (-203 to -154) (dsDNA)
DNA 1: GGATGGTCATAGTGGCGTCGGGCGCCAGGCCTGCGCGGGCACACGCGGTGCGG
DNA 2: CCGCACCGCGTGTGCCCGCGCAGGCCTGGCGCCCGACGCCACTATGACCATCC
B5: Fragment b (-54 to -17) (dsDNA)
DNA 1: CACATGTACCCAGTGTTAACCTTCTAGTGCACTAGAAG
DNA 2: CTTCTAGTGCACTAGAAGGTTAACACTGGGTACATGTG
B6: Fragment 3 (-153 to -104) (dsDNA)
DNA 1: B2 DNA 1
DNA 2: B2 DNA 2
B7: Fragment a (-54 to -25) (dsDNA)
DNA 1: CACATGTACCCAGTGTTAACCTTCTAGTGC
DNA 2: GCACTAGAAGGTTAACACTGGGTACATGTG
B8: Fragment c (-54 to -9) (dsDNA)
DNA 1: CACATGTACCCAGTGTTAACCTTCTAGTGCACTAGAAGGTCAAGGG
DNA 2: CCCTTGACCTTCTAGTGCACTAGAAGGTTAACACTGGGTACATGTG
B9: Fragment 2 (-103 to -54) (dsDNA)
DNA 1: GTATGGGCTCACCGAGATCAGGCTCGTCACGATCGCCCGCACTGCTGGCGGCT
DNA 2: AGCCGCCAGCAGTGCGGGCGATCGTGACGAGCCTGATCTCGGTGAGCCCATAC
B10: Fragment 5 (-40 to -10) (dsDNA)
DNA 1: GTTAACCTTCTAGTGCACTAGAAGGTCAAG
DNA 2: CTTGACCTTCTAGTGCACTAGAAGGTTAAC
B11: Fragment 6 (-73 to -40) (dsDNA)
DNA 1: CGCCCGCACTGCTGGCGGCTCACATGTACCCAGT
DNA 2: ACTGGGTACATGTGAGCCGCCAGCAGTGCGGGCG

Target: T1, Rv0081 (Mycobacterium tuberculosis H37Rv, UniProt P9WMI7 1-114)
T1 sequence: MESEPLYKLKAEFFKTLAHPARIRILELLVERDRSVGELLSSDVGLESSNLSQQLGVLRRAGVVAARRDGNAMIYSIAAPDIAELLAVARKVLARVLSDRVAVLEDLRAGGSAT
Assay: EMSA
Settings: protein: recombinant; tags: His-tag (pET28b); chain copies: 2; label: FAM; blunt

**Q.** Does B1 bind?
**A.** Result: binds

**Q.** Does B2 bind?
**A.** Result: binds

Target: T1, Rv0081
Assay: EMSA; 576 ng Rv0081
Settings: protein: recombinant; tags: His-tag (pET28b); chain copies: 2; blunt

**Q.** Does B3 bind?
**A.** Result: binds

**Q.** Does B4 bind?
**A.** Result: no binding

**Q.** Does B5 bind?
**A.** Result: no binding

**Q.** Does B6 bind?
**A.** Result: binds

**Q.** Does B7 bind?
**A.** Result: no binding

**Q.** Does B8 bind?
**A.** Result: no binding

**Q.** Does B9 bind?
**A.** Result: no binding

Target: T1, Rv0081
Assay: EMSA; 288-576 ng Rv0081
Settings: protein: recombinant; tags: His-tag (pET28b); chain copies: 2; blunt

**Q.** Does B10 bind?
**A.** Result: no binding

**Q.** Does B11 bind?
**A.** Result: no binding
